Reference: patent publication US20200199567A1, “METHODS FOR SELECTION AND EXPANSION OF T CELLS EXPRESSING PD-1” (MEDIMMUNE, LLC, priority 2018, published 2020)

Legend:
[1] = tested on: PD-1 expression in peripheral blood; assay: PD-1 expression in peripheral blood after anti-CTLA-4 pre-treatment, Taqman qRT-PCR; assay type: in vivo, human
Description: The effect of anti-CTLA-4 antibody (tremelimumab) pre-treatment on PD-1 expression in peripheral blood was tested by Taqman qRT-PCR.

PD-1 = PD-1 (Homo sapiens, UniProt Q15116); assay: Binding affinity of anti-PD-1 antibody
Chain of PD-1 (Q15116 25-288): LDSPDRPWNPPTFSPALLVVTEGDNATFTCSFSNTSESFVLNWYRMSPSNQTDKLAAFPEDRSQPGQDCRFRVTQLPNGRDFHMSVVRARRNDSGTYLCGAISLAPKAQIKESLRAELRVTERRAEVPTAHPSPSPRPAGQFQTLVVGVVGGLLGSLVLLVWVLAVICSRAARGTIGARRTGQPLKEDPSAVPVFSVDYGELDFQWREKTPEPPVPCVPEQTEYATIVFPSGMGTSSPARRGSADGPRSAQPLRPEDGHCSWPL

PD-1 expressing T cells = assay: Magnetic bead enrichment (selection) of PD-1 expressing T cells with biotinylated anti-PD-1 antibody; assay type: cell-based, human; details: 4° C.
Description: Donor blood was obtained in the form of human peripheral blood through standard leukapheresis or blood draw protocols. The red blood cells were removed from the donor blood by centrifugation protocols known in the art. Briefly, the peripheral blood was centrifuged, the supernatant discarded, the pellet was resuspended in ammonium chloride potassium (ACK) buffer, the ACK pellet suspension was incubated at room temperature, and the cells were washed twice in wash buffer to produce a cell pellet.
Enrichment of the PD-1 expressing cells was then performed. The washed cell pellet was resuspended in wash buffer and cell count determined. Wash buffer was added to bring the cell density to 100×10^6 cells per mL. 1 μg/mL MEDI3097 antibody was added to the cells to produce an antibody-cell mixture comprising cells and MEDI3097 antibody. The antibody mixture was incubated at 4° C. for 15 minutes and then centrifuged and washed twice with wash buffer. Wash buffer was added to bring cell density to 125×10^6 cells per mL. Anti-biotin beads were then added to the cells at a concentration of 2 mL beads per 1 billion cells to produce a bead mixture. […]
Enrichment of PD-1 expressing T cells was performed after red blood cells were removed from leukapheresis products. The washed cell pellet was resuspended in wash buffer and cell count determined. […]

| binding affinity (PD-1) | Molecule | overall survival (OS) of patients with induced PD-1 expression ([1]; high responder group versus <1.5 fold group, clinical trial NTC02527434) | increase PD-1 expression in peripheral blood ([1]; in a group of patients, after 9-10 days) [fold] | antibody concentration at which impact on PD-1 expression level plateaued (PD-1 expressing T cells) |
| --- | --- | --- | --- | --- |
|  | tremelimumab: anti-CTLA-4 antibody | improved overall survival | > 1.5 |  |
| high binding affinity | LO115: anti-PD-1 antibody (antibody) heavy: EVQLVESGGGLVQPGGSLRLSCAASGFTFSDYGMHWVRQAPGKGLEWVAYISSGSYTIYSADSVKGRFTISRDNAKNSLYLQMNSLRAEDTAVYYCARRAPNSFYEYYFDYWGQGTTVTVSSASTKGPSVFPLAPSSKSTSGGTAALGCLVKDYFPEPVTVSWNSGALTSGVHTFPAVLQSSGLYSLSSVVTVPSSSLGTQTYICNVNHKPSNTKVDKRVEPKSCDKTHTCPPCPAPEFEGGPSVFLFPPKPKDTLMISRTPEVTCVVVDVSHEDPEVKFNWYVDGVEVHNAKTKPREEQYNSTYRVVSVLTVLHQDWLNGKEYKCKVSNKALPASIEKTISKAKGQPREPQVCTLPPSREEMTKNQVSLSCAVKGFYPSDIAVEWESNGQPENNYKTTPPVLDSDGSFFLVSKLTVDKSRWQQGNVFSCSVMHEALHNHYTQKSLSLSPGK light: QIVLTQSPATLSLSPGERATLSCSASSKHTNLYWSRHMYWYQQKPGQAPRLLIYLTSNRATGIPARFSGSGSGTDFTLTISSLEPEDFAVYYCQQWSSNPFTFGQGTKLEIKRTVAAPSVFIFPPSDEQLKSGTASVVCLLNNFYPREAKVQWKVDNALQSGNSQESVTEQDSKDSTYSLSSTLTLSKADYEKHK |  |  |  |
| low binding affinity | MEDI0680: anti-PD-1 antibody (antibody, V domains shown) VH: EVQLVESGGGLVQPGGSLRLSCAASGFTFSDYGMHWVRQAPGKGLEWVAYISSGSYTIYSADSVKGRFTISRDNAKNTLYLQMSSLRAEDTAVYYCARRGYGSFYEYYFDYWGQGTTVTVSS VL: QIVLTQSPATLSLSPGERATLSCSASSSVSYMYWYQQKPGQAPRLLIYLTSNRATGIPARFSGSGSGTDYSSTLTISSLEPEDFAVYYCQQWSSNPFTFGQGTKLEIK |  |  | around 5.0 μg/mL |
